According to publication PMC8884915, “Electrostatic sheathing of lipoprotein lipase is essential for its movement across capillary endothelial cells” (The Journal of Clinical Investigation, 2022):

T1: soluble mouse S-GPIHBP1 (acidic stretch and adjacent tyrosines replaced with an S-protein tag) (mouse, UniProt Q9D1N2 23-198, residues 32 to 48 replaced with the S-protein tag (KETAAAKFERQHMDS))
T1 sequence: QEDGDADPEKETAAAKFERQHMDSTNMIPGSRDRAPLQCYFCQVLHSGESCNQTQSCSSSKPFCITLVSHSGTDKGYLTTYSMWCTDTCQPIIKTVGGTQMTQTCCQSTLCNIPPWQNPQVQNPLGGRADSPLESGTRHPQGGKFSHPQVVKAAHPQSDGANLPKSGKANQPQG

T2: mouse lipoprotein lipase (LPL), recombinant, purified (mouse, UniProt P11152 28-474)
T2 construct: lipoprotein lipase, mouse; expressed in Drosophila S2 cells; also called mouse LPL; purified mouse LPL; source: Drosophila S2 cells, purified to homogeneity by heparin-Sepharose chromatography
T2 sequence (looked up): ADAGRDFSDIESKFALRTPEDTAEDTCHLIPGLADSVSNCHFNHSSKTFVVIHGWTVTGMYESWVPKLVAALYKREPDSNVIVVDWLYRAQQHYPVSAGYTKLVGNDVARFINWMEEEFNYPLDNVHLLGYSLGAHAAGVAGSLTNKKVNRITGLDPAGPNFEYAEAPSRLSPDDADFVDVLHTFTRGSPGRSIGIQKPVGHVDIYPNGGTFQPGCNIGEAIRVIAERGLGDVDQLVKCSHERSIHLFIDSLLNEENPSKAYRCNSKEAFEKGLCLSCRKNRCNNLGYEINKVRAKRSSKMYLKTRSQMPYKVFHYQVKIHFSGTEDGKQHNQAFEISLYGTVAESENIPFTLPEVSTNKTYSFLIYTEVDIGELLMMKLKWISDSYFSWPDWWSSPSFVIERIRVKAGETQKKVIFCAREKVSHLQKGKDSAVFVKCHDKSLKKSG

B1: mouse lipoprotein lipase (LPL), recombinant, purified (enzyme)
chain: T2 sequence (looked up)
B2: soluble WT mouse GPIHBP1 (residues 23-198) (domain or fragment, UniProt Q9D1N2 23-198, looked up)
chain: QEDGDADPEPENYNYDDDDDEEEEEETNMIPGSRDRAPLQCYFCQVLHSGESCNQTQSCSSSKPFCITLVSHSGTDKGYLTTYSMWCTDTCQPIIKTVGGTQMTQTCCQSTLCNIPPWQNPQVQNPLGGRADSPLESGTRHPQGGKFSHPQVVKAAHPQSDGANLPKSGKANQPQG
modifications: sulfated tyrosines in the acidic domain (Tyr35, Tyr37): one half of the molecules contained 2 sulfated tyrosines, the other half only 1
notes: lacks the carboxyl-terminal signal peptide that triggers the addition of a GPI anchor; Homogeneous and monodisperse preparation after removal of low levels of oligomers by SEC; also called WT-GPIHBP1; purified WT-GPIHBP1

Tests used:
[1] = target: T1, soluble mouse S-GPIHBP1 (acidic stretch …); assay: SPR; LPL bound to heparin DP4, 150 mM NaCl
[2] = target: T1, soluble mouse S-GPIHBP1 (acidic stretch …); assay: SPR; 150 mM NaCl
[3] = target: T1, soluble mouse S-GPIHBP1 (acidic stretch …); assay: SPR; 150 mM NaCl; remark: listed apart in the source
[4] = target: T1, soluble mouse S-GPIHBP1 (acidic stretch …); assay: SPR; LPL bound to heparin DP4, 150 mM NaCl; remark: listed apart in the source
[5] = target: T1, soluble mouse S-GPIHBP1 (acidic stretch …); assay: SPR; 750 mM NaCl
[6] = target: T1, soluble mouse S-GPIHBP1 (acidic stretch …); assay: SPR; 750 mM NaCl; remark: listed apart in the source
[7] = target: B1; assay: SPR; 150 mM NaCl
[8] = target: B1; assay: SPR; 150 mM NaCl
[9] = target: T2, mouse lipoprotein lipase (LPL), …; assay: SPR; Biacore T200; mouse LPL captured on the chip with immobilised antibody 27A; WT-GPIHBP1 (0.25-4 nM) or S-GPIHBP1 (2-32 nM) injected, single-cycle kinetics, 50 μL/min, 20°C; 10 mM HEPES pH 7.4, 150 mM NaCl, 4 mM CaCl2, 0.05% P20, 0.2 mg/mL BSA; details: both partners purified
[10] = target: B1; assay: SPR; 750 mM NaCl
[11] = target: B1; assay: SPR; 750 mM NaCl

Binder | Kd [1] | koff [2] | Kd [3] | koff [4] | Kd [5] | koff [6] | koff [7] | Kd [8] | binding result [9] | Kd [10] | koff [11]
B1 | 290 nM | 0.0167 s⁻¹ | 107 nM | 0.0211 s⁻¹ | 183 nM | 0.0495 s⁻¹ | – | – | – | – | –
B2 | – | – | – | – | – | – | 0.0125 s⁻¹ | 0.93 nM | binds | 20 nM | 0.0143 s⁻¹
